Measurements: the MegaScale stability set (Tsuboyama et al. 2023)

B1: HHH_rd1_0493 (parent)
chain: RDEDEKEKIKEALKRGNEDKAKEIAKRANVSPEEYERLRKEAE

Variants of: B1
Experiment: folding stability dG (cDNA display proteolysis); higher = more stable
Details: PBS, room temperature

First: RDEDEKEKIKEALKRGNEDKAKEIAKRANVSPEEYERCRKEAE
Second: RDEDEKEKIKEALKRGNEDKAKEIAKRANVSPEEYERYRKEAE
The “folding stability dG” value of the first is lower: 1.29 kcal/mol for the first, 1.85 kcal/mol for the second.

Compared with RDEDEKEKIKEALKRGNEDKAKEIAKRANVSPEEYERARKEAE, RDEDEKEKIKEALKRGNEDKAKEIAKRANVSPEEYERTRKEAE is lower in “folding stability dG” value: 0.829 kcal/mol for the first, 0.593 kcal/mol for the second.

Compared with RDEDEKEKIKEALKRGNEDKAKEIAKRANVSPEEYERHRKEAE, RDEDEKEKIKEALKRGNEDKAKEIAKRANVSPEEYERNRKEAE is lower in “folding stability dG” value: 0.352 kcal/mol for the first, 0.332 kcal/mol for the second.

Going from RDEDEKEKIKEALKRGNEDKAKEIAKRANVSPEEYERDRKEAE to RDEDEKEKIKEALKRGNEDKAKEIAKRANVSPEEYERSRKEAE, the “folding stability dG” value rises from 0.129 kcal/mol to 0.378 kcal/mol.

Compared with RDEDEKEKIKEALKRGNEDKAKEIAKRANVSPEEYERFRKEAE, RDEDEKEKIKEALKRGNEDKAKEIAKRANVSPEEYERGRKEAE is lower in “folding stability dG” value: 1.58 kcal/mol for the first, 0.162 kcal/mol for the second.

Compared with RDEDEKEKIKEALKRGNEDKAKEIAKRANVSPEEYERKRKEAE, RDEDEKEKIKEALKRGNEDKAKEIAKRANVSPEEYERPRKEAE is lower in “folding stability dG” value: 0.318 kcal/mol for the first, -0.019 kcal/mol for the second.

Compared with RDEDEKEKIKEALKRGNEDKAKEIAKRANVSPEEYERVRKEAE, RDEDEKEKIKEALKRGNEDKAKEIAKRANVSPEEYERERKEAE is lower in “folding stability dG” value: 1.23 kcal/mol for the first, 0.322 kcal/mol for the second.

Going from RDEDEKEKIKEALKRGNEDKAKEIAKRANVSPEEYERRRKEAE to RDEDEKEKIKEALKRGNEDKAKEIAKRANVSPEEYERWRKEAE, the “folding stability dG” value rises from 0.571 kcal/mol to 1.78 kcal/mol.

Compared with RDEDEKEKIKEALKRGNEDKAKEIAKRANVSPEEYERIRKEAE, RDEDEKEKIKEALKRGNEDKAKEIAKRANVSPEEYERQRKEAE is lower in “folding stability dG” value: 2.76 kcal/mol for the first, 0.492 kcal/mol for the second.

Compared with RDEDEKEKIKEALKRGNEDKAKEIAKRANVSPEEYERMRKEAE, RDEDEKEKIKEALKRGNEDKAKEIAKRANVSPEEYERLDKEAE is lower in “folding stability dG” value: 2.26 kcal/mol for the first, 0.392 kcal/mol for the second.

First: RDEDEKEKIKEALKRGNEDKAKEIAKRANVSPEEYERLPKEAE
Second: RDEDEKEKIKEALKRGNEDKAKEIAKRANVSPEEYERLAKEAE
The “folding stability dG” value of the first is lower: 0.097 kcal/mol for the first, 2.37 kcal/mol for the second.

First: RDEDEKEKIKEALKRGNEDKAKEIAKRANVSPEEYERLVKEAE
Second: RDEDEKEKIKEALKRGNEDKAKEIAKRANVSPEEYERLIKEAE
The “folding stability dG” value of the first is higher: 2.65 kcal/mol for the first, 2.09 kcal/mol for the second.

First: RDEDEKEKIKEALKRGNEDKAKEIAKRANVSPEEYERLGKEAE
Second: RDEDEKEKIKEALKRGNEDKAKEIAKRANVSPEEYERLTKEAE
The “folding stability dG” value of the first is lower: 1.16 kcal/mol for the first, 1.89 kcal/mol for the second.

RDEDEKEKIKEALKRGNEDKAKEIAKRANVSPEEYERLSKEAE and RDEDEKEKIKEALKRGNEDKAKEIAKRANVSPEEYERLMKEAE are the same in “folding stability dG” value: 2.1 kcal/mol for the first, 2.1 kcal/mol for the second.

First: RDEDEKEKIKEALKRGNEDKAKEIAKRANVSPEEYERLEKEAE
Second: RDEDEKEKIKEALKRGNEDKAKEIAKRANVSPEEYERLKKEAE
The “folding stability dG” value of the first is lower: 1.77 kcal/mol for the first, 2.99 kcal/mol for the second.

Going from RDEDEKEKIKEALKRGNEDKAKEIAKRANVSPEEYERLCKEAE to RDEDEKEKIKEALKRGNEDKAKEIAKRANVSPEEYERLQKEAE, the “folding stability dG” value rises from 1.52 kcal/mol to 2.2 kcal/mol.

Compared with RDEDEKEKIKEALKRGNEDKAKEIAKRANVSPEEYERLLKEAE, RDEDEKEKIKEALKRGNEDKAKEIAKRANVSPEEYERLFKEAE is lower in “folding stability dG” value: 2.17 kcal/mol for the first, 1.95 kcal/mol for the second.

Going from RDEDEKEKIKEALKRGNEDKAKEIAKRANVSPEEYERLNKEAE to RDEDEKEKIKEALKRGNEDKAKEIAKRANVSPEEYERLHKEAE, the “folding stability dG” value rises from 1.18 kcal/mol to 1.8 kcal/mol.

First: RDEDEKEKIKEALKRGNEDKAKEIAKRANVSPQEYERLRKEAE
Second: RDEDEKEKIKEALKRGNEDKAKEIAKRANVSPREYERLRKEAE
The “folding stability dG” value of the first is higher: 2.58 kcal/mol for the first, 1.99 kcal/mol for the second.

Going from RDEDEKEKIKEALKRGNEDKAKEIAKRANVSPYEYERLRKEAE to RDEDEKEKIKEALKRGNEDKAKEIAKRANVSPSEYERLRKEAE, the “folding stability dG” value rises from 1.92 kcal/mol to 2.43 kcal/mol.

First: RDEDEKEKIKEALKRGNEDKAKEIAKRANVSPVEYERLRKEAE
Second: RDEDEKEKIKEALKRGNEDKAKEIAKRANVSPPEYERLRKEAE
The “folding stability dG” value of the first is higher: 2.22 kcal/mol for the first, 1.57 kcal/mol for the second.

Going from RDEDEKEKIKEALKRGNEDKAKEIAKRANVSPWEYERLRKEAE to RDEDEKEKIKEALKRGNEDKAKEIAKRANVSPNEYERLRKEAE, the “folding stability dG” value rises from 2.06 kcal/mol to 2.07 kcal/mol.

Going from RDEDEKEKIKEALKRGNEDKAKEIAKRANVSPTEYERLRKEAE to RDEDEKEKIKEALKRGNEDKAKEIAKRANVSPEELERLRKEAE, the “folding stability dG” value falls from 2.33 kcal/mol to 2.26 kcal/mol.

First: RDEDEKEKIKEALKRGNEDKAKEIAKRANVSPEESERLRKEAE
Second: RDEDEKEKIKEALKRGNEDKAKEIAKRANVSPEEDERLRKEAE
The “folding stability dG” value of the first is higher: 0.291 kcal/mol for the first, 0.022 kcal/mol for the second.

Going from RDEDEKEKIKEALKRGNEDKAKEIAKRANVSPEETERLRKEAE to RDEDEKEKIKEALKRGNEDKAKEIAKRANVSPEENERLRKEAE, the “folding stability dG” value falls from 0.361 kcal/mol to -0.057 kcal/mol.

First: RDEDEKEKIKEALKRGNEDKAKEIAKRANVSPEECERLRKEAE
Second: RDEDEKEKIKEALKRGNEDKAKEIAKRANVSPEEKERLRKEAE
The “folding stability dG” value of the first is higher: 0.708 kcal/mol for the first, 0.009 kcal/mol for the second.

Compared with RDEDEKEKIKEALKRGNEDKAKEIAKRANVSPEEMERLRKEAE, RDEDEKEKIKEALKRGNEDKAKEIAKRANVSPEEIERLRKEAE is lower in “folding stability dG” value: 2.29 kcal/mol for the first, 1.39 kcal/mol for the second.

First: RDEDEKEKIKEALKRGNEDKAKEIAKRANVSPEERERLRKEAE
Second: RDEDEKEKIKEALKRGNEDKAKEIAKRANVSPEEQERLRKEAE
The “folding stability dG” value of the first is lower: 0.281 kcal/mol for the first, 0.44 kcal/mol for the second.

Compared with RDEDEKEKIKEALKRGNEDKAKEIAKRANVSPEEVERLRKEAE, RDEDEKEKIKEALKRGNEDKAKEIAKRANVSPEEFERLRKEAE is higher in “folding stability dG” value: 1.59 kcal/mol for the first, 3.53 kcal/mol for the second.

With RDEDEKEKIKEALKRGNEDKAKEIAKRANVSPEEHERLRKEAE the “folding stability dG” value was 0.142 kcal/mol.
